Test results as given in paper PMC10926671.

Target: H3K27me3 peptide
Assay: ITC

MBP-BP1 (maltose-binding protein-tagged bromo-adjacent homology-plant homeodomain domain containing protein 1) (natural protein)
Kd: 16.2 µM
